The Kd is the free concentration of one partner at which half of the binding sites on the other are occupied at equilibrium, for simple one-to-one binding.

Common to all, as to experiment: EMSA
(Mobility shift assays separate free from complexed probe on a gel.)

Series [1] concerns the target T1, MBP-Tnp dephosphorylated with CIP (Drosophila mauritiana) (UniProt Q7JQ07).
T1 sequence: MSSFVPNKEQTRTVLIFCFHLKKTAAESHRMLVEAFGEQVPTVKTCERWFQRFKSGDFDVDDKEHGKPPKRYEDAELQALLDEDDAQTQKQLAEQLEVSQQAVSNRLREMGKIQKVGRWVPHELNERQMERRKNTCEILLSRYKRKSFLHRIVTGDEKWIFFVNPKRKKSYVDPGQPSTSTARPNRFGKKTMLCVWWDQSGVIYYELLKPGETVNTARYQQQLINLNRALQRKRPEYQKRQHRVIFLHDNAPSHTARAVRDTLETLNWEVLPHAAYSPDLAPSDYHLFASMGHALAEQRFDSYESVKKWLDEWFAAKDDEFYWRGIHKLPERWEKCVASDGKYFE
Particulars: Scatchard, 5 mM MgCl2, 20 mM Tris pH 9, ice.

Series [2] addresses T2, MBP-Tnp (Mos-1 transposase, phosphorylated, insect cells) (Drosophila mauritiana) (UniProt Q7JQ07).
T2 sequence: T1 sequence
Particulars: single Kd; Scatchard; 5 mM MgCl2, 20 mM Tris pH 9, ice.

For series [3], the target named is T3, Mos-1 transposase (Tnp), rabbit reticulocyte TnT, phosphorylated (Drosophila mauritiana) (UniProt Q7JQ07).
T3 sequence: T1 sequence
As to conditions: single Kd; Scatchard; 5 mM MgCl2, 20 mM Tris pH 9, ice.

In series [4] the target is T4, Mos-1 transposase in vitro translated, dephosphorylated with CIP (Drosophila mauritiana) (UniProt Q7JQ07).
T4 sequence: T1 sequence
As to conditions: Scatchard, 5 mM MgCl2, 20 mM Tris pH 9, ice.

For series [5], the target named is T5, Mos-1 mariner transposase (Tnp), produced in bacteria (Drosophila mauritiana) (UniProt Q7JQ07).
T5 sequence: T1 sequence
As to conditions: CITED (publication submitted), cited from earlier work.

Turning to “Mos-1 ITR 3' (EcoRI/XbaI fragment of pBS(3'))”, the dissociation constant Kd in series [1] (Kd1, second Kd (Kd2) 24.69 nM) amounted to 0.66 nM; in series [1] (Kd2 (second site)) it was 24.7 nM; in series [2] it was 39 nM; in series [3] it was 74 nM; in series [4] (Kd1, second Kd (Kd2) 15.5 nM), 1.3 nM; in series [4] (Kd2 (second site)), 15.5 nM. Further, the dissociation constant Kd in series [5] (Kd1, specific ITR 3' binding, Scatchard) was 0.6 nM; in series [5] (Kd2, ITR bound as integration target), 10 nM.

These data come from patent US7732209.
